The numbers were not newly measured in PMC7143314, which cites them from elsewhere.

This data set concerns the target RAF RBD (Homo sapiens) (UniProt P04049).

In the case of RAS (from UniProt P01116), the Kd was 20 nM.

As usually defined, the Kd is the concentration at which binding is half-saturated.
